Measurements reported in US20260008815A1, “CYCLIC PEPTIDE OR SALT THEREOF, AND USES THEREOF” (FUJIFILM Corporation, priority 2023, published 2026).
Bridge positions count the residues as written; N and C are the ends. Ends that are not written are not given here. COCH2 = acetyl group that carries the bridge

Molecular target: T1, Recombinant Human FGFR2 alpha (IIIc) Fc Chimera Protein, CF (R&D systems, 712-FR-050) (human, UniProt P21802 22-377)
T1 construct: bought; not shown: Fc part of the chimera
Assay: ELISA on plate-bound FGFR2-Fc
Outline: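 Plate-immobilized FGFR2 alpha (IIIc)-Fc (5 ng/well) incubated with peptide 3 h at room temperature, then anti-Myc antibody 2 h and chemiluminescent ELISA substrate. Signal corrected by subtracting FGFR-free wells; binding affinity scored into categories from the dose-response.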

T1 sequence (P21802 22-377, change not shown): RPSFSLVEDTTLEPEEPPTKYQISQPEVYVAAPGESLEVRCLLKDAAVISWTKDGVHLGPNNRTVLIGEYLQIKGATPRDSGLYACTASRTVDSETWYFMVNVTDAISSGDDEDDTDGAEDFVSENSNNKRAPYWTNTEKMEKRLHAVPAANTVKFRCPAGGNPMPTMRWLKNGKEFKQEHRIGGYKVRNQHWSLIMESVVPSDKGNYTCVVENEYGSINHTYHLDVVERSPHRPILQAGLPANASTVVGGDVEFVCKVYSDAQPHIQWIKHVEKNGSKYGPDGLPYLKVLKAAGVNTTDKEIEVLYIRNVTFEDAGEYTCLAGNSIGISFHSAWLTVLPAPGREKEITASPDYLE

ELISA luminescence signal at 10 nmol/L peptide, relative to SEQ ID NO: 47 (=1) [ratio] | Binder
≥ 0.7 | YCEENYLDPEQYQYFLYFK(COCH2)Y (thioether 2-19 (inferred)) [cyclic peptide SEQ ID NO: 278]
≥ 0.7 | YCEENYLDPEQYQYFDYFK(COCH2)Y (thioether 2-19 (inferred)) [cyclic peptide SEQ ID NO: 287]
0.5 to 0.7 | YCEENYLDPEQYQYFIGFK(COCH2)Y (thioether 2-19 (inferred)) [cyclic peptide SEQ ID NO: 291]
0.1 to 0.5 | YCEENYLDPEQYQYFGYFK(COCH2)Y (thioether 2-19 (inferred)) [cyclic peptide SEQ ID NO: 277]
≥ 0.7 | YCEENYLDPEQYQYFVYFK(COCH2)Y (thioether 2-19 (inferred)) [cyclic peptide SEQ ID NO: 279]
≥ 0.7 | YCEENYLDPEQYQYFHYFK(COCH2)Y (thioether 2-19 (inferred)) [cyclic peptide SEQ ID NO: 290]
≥ 0.7 | YCEENYLDPEQYQFFIYFK(COCH2)Y (thioether 2-19 (inferred)) [cyclic peptide SEQ ID NO: 272]
≥ 0.7 | YCEENYLDPEQYQYFNYFK(COCH2)Y (thioether 2-19 (inferred)) [cyclic peptide SEQ ID NO: 283]
≥ 0.7 | YCEENYLDPEQYQYFWYFK(COCH2)Y (thioether 2-19 (inferred)) [cyclic peptide SEQ ID NO: 282]
≥ 0.7 | YCEENYLDPEQYQYFFYFK(COCH2)Y (thioether 2-19 (inferred)) [cyclic peptide SEQ ID NO: 280]
≥ 0.7 | YCEENYLDPEQYQYFQYFK(COCH2)Y (thioether 2-19 (inferred)) [cyclic peptide SEQ ID NO: 284]
≥ 0.7 | YCEENYLDPEQYQYFYYFK(COCH2)Y (thioether 2-19 (inferred)) [cyclic peptide SEQ ID NO: 281]
0.1 to 0.5 | YCEENYLDPEQYQNFIYFK(COCH2)Y (thioether 2-19 (inferred)) [cyclic peptide SEQ ID NO: 273]
0.1 to 0.5 | YCEENYLDPEQYQYFIPFK(COCH2)Y (thioether 2-19 (inferred)) [cyclic peptide SEQ ID NO: 292]
≥ 0.7 | YCEENYLDPEQYQYFEYFK(COCH2)Y (thioether 2-19 (inferred)) [cyclic peptide SEQ ID NO: 288]
0.1 to 0.5 | YCEENYLDPEQYQHFIYFK(COCH2)Y (thioether 2-19 (inferred)) [cyclic peptide SEQ ID NO: 274]
≥ 0.7 | YCEENYLDPEQYQYFRYFK(COCH2)Y (thioether 2-19 (inferred)) [cyclic peptide SEQ ID NO: 289]
≥ 0.7 | YCEENYLDPEQYQYLIYFK(COCH2)Y (thioether 2-19 (inferred)) [cyclic peptide SEQ ID NO: 275]
≥ 0.7 | YCEENYLDPEQYQYFTYFK(COCH2)Y (thioether 2-19 (inferred)) [cyclic peptide SEQ ID NO: 286]
0.5 to 0.7 | YCEENYLDPEQYQYYIYFK(COCH2)Y (thioether 2-19 (inferred)) [cyclic peptide SEQ ID NO: 276]
≥ 0.7 | YCEENYLDPEQYQYFILFK(COCH2)Y (thioether 2-19 (inferred)) [cyclic peptide SEQ ID NO: 293]
≥ 0.7 | YCEENYLDPEQYQYFSYFK(COCH2)Y (thioether 2-19 (inferred)) [cyclic peptide SEQ ID NO: 285]

More lines, now with the values behind:

Binder | ELISA luminescence signal at 10 nmol/L peptide, relative to SEQ ID NO: 47 (=1) [ratio]
YCEENYLDPHQYQYFIYFK(COCH2)Y (thioether 2-19 (inferred)) [cyclic peptide SEQ ID NO: 250] | ≥ 0.7
YCEENYLDPEHYQYFIYFK(COCH2)Y (thioether 2-19 (inferred)) [cyclic peptide SEQ ID NO: 251] | 0.1 to 0.5
YCEENYLDPEQLQYFIYFK(COCH2)Y (thioether 2-19 (inferred)) [cyclic peptide SEQ ID NO: 252] | 0.1 to 0.5
YCEENYLDPEQYWYFIYFK(COCH2)Y (thioether 2-19 (inferred)) [cyclic peptide SEQ ID NO: 263] | ≥ 0.7
YCEENYLDPEQYSYFIYFK(COCH2)Y (thioether 2-19 (inferred)) [cyclic peptide SEQ ID NO: 265] | ≥ 0.7
YCEENYLDPEQYYYFIYFK(COCH2)Y (thioether 2-19 (inferred)) [cyclic peptide SEQ ID NO: 262] | ≥ 0.7
YCEENYLDPEQYVYFIYFK(COCH2)Y (thioether 2-19 (inferred)) [cyclic peptide SEQ ID NO: 260] | ≥ 0.7
YCEENYLDPEQYEYFIYFK(COCH2)Y (thioether 2-19 (inferred)) [cyclic peptide SEQ ID NO: 268] | ≥ 0.7
YCEENYLDPEQYTYFIYFK(COCH2)Y (thioether 2-19 (inferred)) [cyclic peptide SEQ ID NO: 266] | ≥ 0.7
YCEENYLDPEQYQIFIYFK(COCH2)Y (thioether 2-19 (inferred)) [cyclic peptide SEQ ID NO: 271] | 0.1 to 0.5
YCEENYLDPEQIQYFIYFK(COCH2)Y (thioether 2-19 (inferred)) [cyclic peptide SEQ ID NO: 253] | 0.1 to 0.5
YCEENYLDPEQYLYFIYFK(COCH2)Y (thioether 2-19 (inferred)) [cyclic peptide SEQ ID NO: 258] | ≥ 0.7
YCEENYLDPEQYNYFIYFK(COCH2)Y (thioether 2-19 (inferred)) [cyclic peptide SEQ ID NO: 264] | ≥ 0.7
YCEENYLDPEQFQYFIYFK(COCH2)Y (thioether 2-19 (inferred)) [cyclic peptide SEQ ID NO: 254] | ≥ 0.7
YCEENYLDPEQYRYFIYFK(COCH2)Y (thioether 2-19 (inferred)) [cyclic peptide SEQ ID NO: 269] | ≥ 0.7
YCEENYLDPEQHQYFIYFK(COCH2)Y (thioether 2-19 (inferred)) [cyclic peptide SEQ ID NO: 256] | ≥ 0.7
YCEENYLDPEQYDYFIYFK(COCH2)Y (thioether 2-19 (inferred)) [cyclic peptide SEQ ID NO: 267] | ≥ 0.7
YCEENYLDPEQYGYFIYFK(COCH2)Y (thioether 2-19 (inferred)) [cyclic peptide SEQ ID NO: 257] | ≥ 0.7
YCEENYLDPEQYIYFIYFK(COCH2)Y (thioether 2-19 (inferred)) [cyclic peptide SEQ ID NO: 259] | ≥ 0.7
YCEENYLDPEQYHYFIYFK(COCH2)Y (thioether 2-19 (inferred)) [cyclic peptide SEQ ID NO: 270] | ≥ 0.7
YCEENYLDPEQYFYFIYFK(COCH2)Y (thioether 2-19 (inferred)) [cyclic peptide SEQ ID NO: 261] | 0.5 to 0.7
YCEENYLDPEQWQYFIYFK(COCH2)Y (thioether 2-19 (inferred)) [cyclic peptide SEQ ID NO: 255] | ≥ 0.7
